Data as given in patent publication US10494417B2, “Peptide inhibitors of BCR-ABL oligomerization” (University of Utah Research Foundation, priority 2014, dated 2019).
“Also recorded” adds a separate entry of the source.

Tests used:
[1] = system: Ba/F3 cells expressing BCR-ABL1E255V; assay: Proliferation of transfected Ba/F3 BCR-ABL1 E255V cells (MTS assay); type: cell-based, mouse; settings: CCmut3 vs EV; for proliferation, in words: MTS assay at 72 and 96 h
Method: Stable recombinant Ba/F3 cells transduced with wild type p210 BCR-ABL1 (Daley, G. Q., et al. (1991) Proc. Natl. Acad. Sci. U.S.A. 88, 11335-11338), the kinase domain mutants p210^T315I p210^[…], or the compound mutant p210^E255V/T315I were as previously described (La Rosee, P., et al. (2002) Cancer Res. 62, 7149-7153; O'Hare, T., et al. (2004) Blood 104, 2532-2539). These cells were cultured in RPMI with 10% FBS, 1% penicillin, streptomycin, glutamine, and 0.1% gentamycin (RPMI1640). Additionally 0.1% MycoZap™ (Lonza Bio, Basel, Switzerland) was added to prevent mycoplasma contamination. The non-transduced parental Ba/F3 cell line was grown in RPMI1640 supplemented with 20% WEHI-3B conditioned medium as a source of murine IL-3 (Dexter, T. M., et al. (1980) J. Exp. Med. 152, 1036-1047). Ba/F3 cells were transfected with plasmid DNA using the Amaxa nucleofection system (Lonza Bio), following the manufacturer's instructions. Cells were sorted on a BD FACSAria cytometer (BD Biosciences, San Jose, Calif.) for double-positive cells expressing mCherry and GFP then returned to RPMI1640 for subsequent experiments.
(§1) Cell proliferation was assessed using the CellTiter 96® AQueous One Solution Cell Proliferation Assay (MTS assay, Promega) according to manufacturer instructions. Briefly, 5,000 viable cells were added to a single well in 96-well plate in 100 μL RPMI1640. Three independent samples were seeded in duplicate for each time point. […] In some experiments, cell proliferation was assessed using a Neubauer chamber and trypan blue dye exclusion.
Stable Ba/F3 cells transduced with native (p210) BCR-ABL1, the kinase domain mutants BCR-ABL1T315I, BCR-ABL1E255V, or the compound mutant BCR-ABL1E255V/T315I were cultured. […]
Cell proliferation was assessed using a […] viability assay (MTS assay) utilizing CellTiter 96® AQueous One Solution Cell Proliferation Assay (Promega) according to manufacturer instructions. […] Cell growth was assessed by MTS assay at 72 and 96 h. […] In patient sample experiments, cell proliferation was assessed by trypan blue exclusion.

[2] = system: Ba/F3 cells expressing BCR-ABL1E255V/T315I; assay: Colony forming assay of Ba/F3 BCR-ABL1 E255V/T315I cells; type: cell-based, mouse; settings: for colony formation, in words: CCmut3 gene delivery (transfection; b502 lentiviral infection) vs EV
Method: Following selection of transfected cells by cell sorting, viable cells were enumerated and seeded into methylcellulose as described previously (Dixon, A. S., et al. (2011) J. Biol. Chem. 286, 27751-27760). Briefly, mCherry-positive Ba/F3 cells were re-suspended in IMDM with 2% FBS (Stem Cell Technologies) at a concentration of 10,000 cells/mL. Three hundred microliters of this dilution was added to 3 mL of Methocult media (M3434—Ba/F3 p210 wild-type and mutant lines or M3234—Ba/F3 parental, Stem Cell Technologies). Approximately 1100 cells, or 1.2 mL, were seeded per dish in duplicate for each transfection. Colonies were counted 7 days later in an area of […] per dish.
Following selection of transfected cells by cell sorting, methylcellulose colony assays were performed by plating in 0.9% methylcellulose (Stem Cell Technologies; M3234 for Ba/F3 BCR-ABL1 native and mutant lines; M3434 for Ba/F3 parental cells; H4230 for CML patient samples). mCherry-positive Ba/F3 cells (1.1×10^3 cells/plate) or GFP-positive primary CML CD34+ cells (1×10^3 cells/plate) were seeded per dish in duplicate. In the case of CML patient samples, cells were plated in the presence of 1× StemSpan CC100 cytokine cocktail (StemCell Technologies). All cells were plated with or without the indicated TKI in three or more independent experiments. Plates were incubated at 37° C. in a 5% CO2 humidified incubator. Colonies were counted 7-14 days later in an area of 50 μm2 per dish using an inverted microscope.

[3] = system: Ba/F3 cells expressing native BCR-ABL1 (Ba/F3-p210); assay: Annexin V/7-AAD apoptosis assay in transfected Ba/F3-p210 cells; type: cell-based, mouse
Method: Assays were run in triplicate (n=3).
(§2) For analysis of apoptosis and cell death, cells were pelleted and resuspended in Annexin V-binding buffer (BD Biosciences), stained with anti-Annexin V-APC (BD Biosciences or Life Technologies) and 7-AAD (BD Biosciences or Life Technologies) and analyzed on a BD FACSCanto flow cytometer. In addition to the APC and 7-AAD channels, GFP- and mCherry-positive cells were also recorded.
as §2, with “apoptosis and necrotic cell death,” for “apoptosis and cell death,”, “anti-Annexin V-APC and 7-AAD” for “anti-Annexin V-APC (BD Biosciences or Life Technologies) and 7-AAD”

[4] = system: CML CD34+ cells expressing BCR-ABL1T315I; assay: Liquid culture of primary T315I CML cells; type: cell-based, human; settings: CC^mut3 or increasing concentrations of ponatinib (FIG. 28C)
Method: as §1

B1: CCmut3: modified Bcr-Abl coiled-coil domain (residues 1-72) with mutations C38A, K39E, S41R, L45D, E48R, Q60E (protein)
chain: MVDPVGFAEAWKAQFPDSEPPRMELRSVGDIEQELERAEARIRRDEQRVNQERFRMIYLETLLAKEKKSYDR
reduction of proliferation ([1]; 96 h, MTS assay): approximately 3 fold | proliferation, in words [1]: significant reduction of proliferative capacity; also recorded: lesser, yet significant difference was noted at the 72 h time point | proliferation, in words ([1]; listed as CC^mut3): significant reduction | colony formation, in words [2]: again reduced | colony formation, in words ([2]; listed as CC^mut3): reduced; also recorded: Inhibition in colony formation | reduction of CFCs / colony forming ability compared to EV ([2]; CCmut3 vs EV): approximately 50% | apoptosis, in words ([3]; 72 h, CCmut3 vs EV): increases apoptosis | increase of apoptotic cells ([3]; 72 h, CCmut3 vs EV): approximately 3 fold | increase in apoptotic population ([3]; CC^mut3 versus EV control (FIG. 14B)): more than 30% | effect in liquid culture [4]: no effect
